Test results reported in patent US20080057063A1 (published 2008).
Read-outs that look alike come from different tables or passages of the source.

Assays:
[1] = molecular target: T1, mouse αV (HEK-293 cells transfected with mouse αV alone) (mouse, UniProt P43406 31-1044); assay: FACS, HEK-293 transfected with mouse αV
T1 construct: whole, on cells; Single chain transfected into HEK-293 cells; also called Mouse alphaV

[2] = molecular target: T2, α4β1 integrin (on J6.77 cells) (UniProt P13612 34-1032; P05556 21-798, limits assumed); assay: cell-based or functional assay
[3] = molecular target: T3, human αV on parental A375M cells, which express αVβ3 and αVβ5, but not αVβ6 (human, UniProt P06756 31-1048); assay: FACS, parental A375M cells (αVβ3, αVβ5)
T3 construct: whole, on cells; Two heterodimers (αVβ3, αVβ5) on one cell line; also called αVβ3 or αVβ5 integrins
T3 sequence (P06756 31-1048 A375M): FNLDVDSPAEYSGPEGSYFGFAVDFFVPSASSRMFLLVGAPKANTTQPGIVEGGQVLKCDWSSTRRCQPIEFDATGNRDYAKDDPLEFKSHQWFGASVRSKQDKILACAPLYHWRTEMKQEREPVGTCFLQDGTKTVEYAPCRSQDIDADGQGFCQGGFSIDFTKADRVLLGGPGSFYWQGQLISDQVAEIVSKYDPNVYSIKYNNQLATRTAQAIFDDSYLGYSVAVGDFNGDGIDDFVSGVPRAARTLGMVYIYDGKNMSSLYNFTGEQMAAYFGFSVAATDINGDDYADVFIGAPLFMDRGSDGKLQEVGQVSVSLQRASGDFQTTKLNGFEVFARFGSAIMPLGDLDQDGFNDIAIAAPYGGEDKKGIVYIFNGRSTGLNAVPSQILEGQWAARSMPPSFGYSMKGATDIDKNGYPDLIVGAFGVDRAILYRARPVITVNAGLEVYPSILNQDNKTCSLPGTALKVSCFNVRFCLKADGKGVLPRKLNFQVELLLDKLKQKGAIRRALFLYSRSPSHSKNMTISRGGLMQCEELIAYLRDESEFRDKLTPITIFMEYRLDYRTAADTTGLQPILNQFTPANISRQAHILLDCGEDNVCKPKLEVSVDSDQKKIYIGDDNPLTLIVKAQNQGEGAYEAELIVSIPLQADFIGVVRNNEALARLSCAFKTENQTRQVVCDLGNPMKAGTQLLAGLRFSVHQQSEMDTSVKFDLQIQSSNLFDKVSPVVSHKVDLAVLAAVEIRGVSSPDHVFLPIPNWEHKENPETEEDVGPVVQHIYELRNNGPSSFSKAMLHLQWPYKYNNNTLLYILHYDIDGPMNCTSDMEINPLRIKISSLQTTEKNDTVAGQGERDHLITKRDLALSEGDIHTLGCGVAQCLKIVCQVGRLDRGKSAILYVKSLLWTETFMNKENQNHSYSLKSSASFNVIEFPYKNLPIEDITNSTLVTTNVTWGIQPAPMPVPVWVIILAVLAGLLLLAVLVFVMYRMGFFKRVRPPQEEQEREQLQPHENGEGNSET

[4] = molecular target: T3, human αV on parental A375M cells, which …; assay: cell-based or functional assay
[5] = molecular target: T4, α5β1 integrin (on K562 cells) (UniProt P08648 42-1049; P05556 21-798, limits assumed); assay: cell-based or functional assay
T4 sequence (P08648 42-1049 limits assumed, chain 1 of 2): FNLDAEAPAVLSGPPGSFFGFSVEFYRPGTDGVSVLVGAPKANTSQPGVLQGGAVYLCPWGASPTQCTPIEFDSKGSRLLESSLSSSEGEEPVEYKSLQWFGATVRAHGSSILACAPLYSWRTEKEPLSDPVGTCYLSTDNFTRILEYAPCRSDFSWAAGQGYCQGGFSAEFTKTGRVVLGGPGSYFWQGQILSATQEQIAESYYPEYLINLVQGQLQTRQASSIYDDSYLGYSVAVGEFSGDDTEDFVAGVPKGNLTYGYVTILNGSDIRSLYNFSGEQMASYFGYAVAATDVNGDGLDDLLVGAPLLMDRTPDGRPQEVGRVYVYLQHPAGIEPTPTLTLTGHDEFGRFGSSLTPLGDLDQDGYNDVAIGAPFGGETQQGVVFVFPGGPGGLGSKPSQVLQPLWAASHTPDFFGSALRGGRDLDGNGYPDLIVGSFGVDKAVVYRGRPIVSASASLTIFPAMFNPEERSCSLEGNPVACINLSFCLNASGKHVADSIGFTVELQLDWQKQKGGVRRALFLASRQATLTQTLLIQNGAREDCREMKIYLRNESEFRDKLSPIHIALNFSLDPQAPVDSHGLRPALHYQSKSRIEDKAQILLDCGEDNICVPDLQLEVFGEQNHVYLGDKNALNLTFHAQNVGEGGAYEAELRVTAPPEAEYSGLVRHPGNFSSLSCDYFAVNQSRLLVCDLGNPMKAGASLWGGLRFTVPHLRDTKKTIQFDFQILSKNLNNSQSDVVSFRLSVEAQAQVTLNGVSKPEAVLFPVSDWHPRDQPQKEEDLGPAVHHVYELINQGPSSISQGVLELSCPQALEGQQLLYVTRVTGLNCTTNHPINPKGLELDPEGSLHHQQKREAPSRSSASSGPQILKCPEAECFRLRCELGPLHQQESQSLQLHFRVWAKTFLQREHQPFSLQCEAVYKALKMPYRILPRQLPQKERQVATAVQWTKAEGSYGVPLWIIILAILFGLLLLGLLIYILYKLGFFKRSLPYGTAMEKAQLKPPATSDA
T4 sequence (P05556 21-798 limits assumed, chain 2 of 2): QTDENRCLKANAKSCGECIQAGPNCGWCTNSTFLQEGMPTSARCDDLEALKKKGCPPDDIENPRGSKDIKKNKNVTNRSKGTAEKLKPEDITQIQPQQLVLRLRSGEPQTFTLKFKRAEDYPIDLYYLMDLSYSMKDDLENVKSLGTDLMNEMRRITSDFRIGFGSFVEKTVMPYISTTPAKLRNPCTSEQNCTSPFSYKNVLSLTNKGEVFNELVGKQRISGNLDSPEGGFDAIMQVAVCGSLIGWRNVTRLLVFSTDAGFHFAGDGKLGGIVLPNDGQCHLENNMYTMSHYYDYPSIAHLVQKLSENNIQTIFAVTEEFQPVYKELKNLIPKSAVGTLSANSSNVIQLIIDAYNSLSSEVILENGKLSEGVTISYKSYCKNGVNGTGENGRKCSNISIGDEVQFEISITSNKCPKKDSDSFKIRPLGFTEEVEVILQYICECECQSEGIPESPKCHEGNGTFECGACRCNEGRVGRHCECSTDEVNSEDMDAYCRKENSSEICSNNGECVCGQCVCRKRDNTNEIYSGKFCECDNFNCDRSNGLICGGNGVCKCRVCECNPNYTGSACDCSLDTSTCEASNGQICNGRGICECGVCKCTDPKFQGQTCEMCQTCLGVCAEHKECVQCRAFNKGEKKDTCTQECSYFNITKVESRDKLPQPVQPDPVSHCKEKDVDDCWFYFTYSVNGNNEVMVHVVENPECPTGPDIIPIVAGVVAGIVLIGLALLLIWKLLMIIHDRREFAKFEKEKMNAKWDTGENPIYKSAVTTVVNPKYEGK

[6] = molecular target: T5, human αVβ6 integrin on cells (human, UniProt P06756 31-1048; P18564 22-788); assay: cell-based or functional assay
T5 sequence (P06756 31-1048, chain 1 of 2): as the sequence (P06756 31-1048 A375M) above, with M345A counted along it
T5 sequence (P18564 22-788, chain 2 of 2): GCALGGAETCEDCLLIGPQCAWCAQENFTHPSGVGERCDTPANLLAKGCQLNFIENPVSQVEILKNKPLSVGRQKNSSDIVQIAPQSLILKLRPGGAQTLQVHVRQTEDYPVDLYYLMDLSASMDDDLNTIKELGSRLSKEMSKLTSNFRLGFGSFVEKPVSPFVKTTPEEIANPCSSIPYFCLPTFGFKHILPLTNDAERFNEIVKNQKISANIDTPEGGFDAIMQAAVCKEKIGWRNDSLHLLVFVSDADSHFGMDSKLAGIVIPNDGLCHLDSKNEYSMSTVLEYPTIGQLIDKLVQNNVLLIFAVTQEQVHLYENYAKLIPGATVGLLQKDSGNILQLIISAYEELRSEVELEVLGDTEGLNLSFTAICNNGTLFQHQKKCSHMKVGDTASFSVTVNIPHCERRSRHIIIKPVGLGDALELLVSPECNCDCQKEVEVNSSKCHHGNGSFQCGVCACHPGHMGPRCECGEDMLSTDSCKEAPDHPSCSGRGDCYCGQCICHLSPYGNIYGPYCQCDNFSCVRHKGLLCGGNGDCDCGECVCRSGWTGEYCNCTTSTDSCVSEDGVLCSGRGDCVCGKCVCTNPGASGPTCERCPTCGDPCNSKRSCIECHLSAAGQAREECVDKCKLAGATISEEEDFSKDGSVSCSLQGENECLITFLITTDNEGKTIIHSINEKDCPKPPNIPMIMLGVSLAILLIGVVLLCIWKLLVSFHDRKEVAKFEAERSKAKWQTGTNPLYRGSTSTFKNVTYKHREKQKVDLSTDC

[7] = molecular target: T2, α4β1 integrin (on J6.77 cells); assay: cell-based or functional assay; remark: listed apart in the source
[8] = molecular target: T5, human αVβ6 integrin on cells; assay: cell-based or functional assay; remark: listed apart in the source
soluble αVβ6 = molecular target: T6, soluble αVβ6 (human, UniProt P06756 31-992; P18564 22-709); assay: Biacore, mAb captured on anti-human IgG, soluble αVβ6 injected, 1:1 fit
T6 construct: extracellular domain; also called soluble αVβ6 protein; soluble antigen

[9] = molecular target: T4, α5β1 integrin (on K562 cells); assay: cell-based or functional assay; remark: listed apart in the source
[10] = molecular target: T5, human αVβ6 integrin on cells; assay: FMAT, HEK 293 cells overexpressing αVβ6, supernatant
[11] = molecular target: T5, human αVβ6 integrin on cells; assay: FACS titration on K562 cells expressing human αVβ6; 95% CI ±22.7 pM
cynomolgus αVβ6 on cells = molecular target: T7, cynomolgus αVβ6 on cells (cynomolgus, UniProt A0A2K5WCD3 31-1048; A0A2K5TZ36 22-787); assay: FACS, HEK-293 transfected with cynomolgus αV and β6
T7 construct: whole, on cells; also called macaque αVβ6; Mac AVB6

[12] = molecular target: T5, human αVβ6 integrin on cells; assay: cell-based or functional assay; remark: listed apart in the source
[13] = molecular target: T5, human αVβ6 integrin on cells; assay: FACS, 293T-αVβ6 cells, antibody at 1.25 ug/ml
[14] = molecular target: T5, human αVβ6 integrin on cells; assay: FACS, 293T-αVβ6 cells, antibody at 5 ug/ml
[15] = molecular target: T5, human αVβ6 integrin on cells; assay: FACS, 293T-αVβ6 cells, antibody at 20 ug/ml
[16] = molecular target: T5, human αVβ6 integrin on cells; assay: FACS titration on K562 cells expressing human αVβ6 (as Example 18)
[17] = molecular target: T5, human αVβ6 integrin on cells; assay: FACS titration on K562 cells expressing human αVβ6 (as Example 18); 95% CI ±15.9 pM

T1 sequence (P43406 31-1044): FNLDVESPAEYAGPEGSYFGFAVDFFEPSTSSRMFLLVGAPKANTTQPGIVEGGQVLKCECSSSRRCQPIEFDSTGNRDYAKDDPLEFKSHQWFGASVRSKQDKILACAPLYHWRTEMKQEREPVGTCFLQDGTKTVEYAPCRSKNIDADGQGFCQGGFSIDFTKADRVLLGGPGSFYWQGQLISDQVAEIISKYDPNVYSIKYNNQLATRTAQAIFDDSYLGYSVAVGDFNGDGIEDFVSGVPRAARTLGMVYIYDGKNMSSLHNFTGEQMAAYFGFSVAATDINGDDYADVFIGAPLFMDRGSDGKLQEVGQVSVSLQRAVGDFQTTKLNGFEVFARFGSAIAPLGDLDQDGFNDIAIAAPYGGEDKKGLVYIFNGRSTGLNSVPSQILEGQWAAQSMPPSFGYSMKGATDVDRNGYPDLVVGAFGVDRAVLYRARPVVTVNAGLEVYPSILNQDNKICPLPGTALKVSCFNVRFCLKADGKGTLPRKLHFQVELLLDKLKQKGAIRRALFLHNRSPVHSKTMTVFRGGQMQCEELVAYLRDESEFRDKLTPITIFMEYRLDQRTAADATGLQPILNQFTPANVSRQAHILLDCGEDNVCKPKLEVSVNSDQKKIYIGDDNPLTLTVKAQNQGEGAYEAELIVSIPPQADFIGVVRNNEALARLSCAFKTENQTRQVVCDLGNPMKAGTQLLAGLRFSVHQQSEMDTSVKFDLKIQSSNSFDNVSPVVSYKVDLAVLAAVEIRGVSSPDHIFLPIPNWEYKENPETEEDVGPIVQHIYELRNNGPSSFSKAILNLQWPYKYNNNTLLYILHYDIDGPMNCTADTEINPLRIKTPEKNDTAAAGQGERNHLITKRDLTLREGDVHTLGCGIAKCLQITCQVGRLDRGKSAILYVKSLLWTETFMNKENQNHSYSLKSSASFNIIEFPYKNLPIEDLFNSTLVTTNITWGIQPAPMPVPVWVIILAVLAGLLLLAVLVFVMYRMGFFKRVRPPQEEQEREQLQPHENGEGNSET

Binder	Percent Inhibition (J6.77 adhesion to CS-1 peptide of fibronectin, 5 ug/ml) [2] [%]	Percent Inhibition (K562 adhesion to FN9-10 peptide of fibronectin, 5 µg/ml) [5] [%]	Percent Inhibition (J6.77 adhesion to CS-1 peptide of fibronectin, 5 ug/ml) [7] [%]	% Inhibition (K562 adhesion to fibronectin) [9] [%]	IC50, n = 1 (HT29 adhesion to TGFβLAP) [12] [mg/L]	IC50, n = 2 (HT29 adhesion to TGFβLAP) [12] [mg/L]	IC50, n = 3 (HT29 adhesion to TGFβLAP) [12] [mg/L]	Geometric Mean Shift [13]	Geometric Mean Shift [14]	Geometric Mean Shift [15]	also measured
sc 188 (antibody, V domains shown) VH: QVQLQESGPGLVKPSQTLSLTCTVSGGSISSGVYYWTWIRQHPGNGLEWIGYIYYSGSTSYNPSLKSRVTISVDTSKKQFSLNLTSVTAADTAVYYCAREGPLRGDYYYGLDVWGQGTTVTVSS VL: EIVLTQSPGTLSLSPGERATLSCRAGQTISSRYLAWYQQKPGQAPRPLIYGASSRATGIPDRFSGSGSGTDFTLTISRLEPEDFAVYYCQQYGSSPRTFGQGTKVEIK	-10	5	2	-5	0.125	0.157	0.064	–	–	–	Estimated IC50, n = 1 (HT29 adhesion to TGFβLAP) [6]: 0.041 mg/L; Estimated IC50, n = 2 (HT29 adhesion to TGFβLAP) [6]: 0.026 mg/L; Assay 1 % Inhibition (HT29 adhesion to TGFβLAP) [8]: 99%; Assay 2 % Inhibition (HT29 adhesion to TGFβLAP) [8]: 103%; Average % Inhibition (HT29 adhesion to TGFβLAP) [8]: 101%; Kd (soluble αVβ6): 21.2 nM; FMAT Count [10]: 127; FMAT FL1 [10]: 628; FMAT FL1 × Count [10]: 79800; Kd [11]: 0.0519 nM; GeoMean (cynomolgus αVβ6 on cells): 23.9
sc 188 SDM (antibody, V domains shown, Variable domains only) VH: QVQLQESGPGLVKPSQTLSLTCTVSGGSISSGVYYWTWIRQHPGNGLEWIGYIYYSGSTSYNPSLKSRVTISVDTSKKQFSLKLTSVTAADTAVYYCAREGPLRGDYYYGLDVWGQGTTVTVSS VL: EIVLTQSPGTLSLSPGERATLSCRAGQTISSRYLAWYQQKPGQAPRPLIYGASSRATGIPDRFSGSGSGTDFTLTISRLEPEDFAVYYCQQYGSSPRTFGQGTKVEIK	–	–	-6	-8	0.022	0.024	0.067	4530	6820	6760	–

Now from value to binder, other results behind:

Percent Inhibition (J6.77 adhesion to CS-1 peptide of fibronectin, 5 ug/ml) [2] [%]	Percent Inhibition (K562 adhesion to FN9-10 peptide of fibronectin, 5 µg/ml) [5] [%]	Percent Inhibition (J6.77 adhesion to CS-1 peptide of fibronectin, 5 ug/ml) [7] [%]	% Inhibition (K562 adhesion to fibronectin) [9] [%]	IC50, n = 1 (HT29 adhesion to TGFβLAP) [12] [mg/L]	IC50, n = 2 (HT29 adhesion to TGFβLAP) [12] [mg/L]	IC50, n = 3 (HT29 adhesion to TGFβLAP) [12] [mg/L]	Geometric Mean Shift [13]	Geometric Mean Shift [14]	Geometric Mean Shift [15]	Binder	also measured
-15	-12	–	–	–	–	–	–	–	–	sc 133 (antibody, V domains shown) VH: QVQLVQSGAEVKKPGASVKVSCKASGYTFTGYYMHWVRQAPGQGLEWMGWINPKSGDTNYAQKFQGRVTLTRDTSTSTAYMELSRLRSDDTAVYYCARRLDVWGQGTTVTVSS VL: QSVLTQPPSVSAAPGQKVTISCSGSSSNIGNNYVSWYQQLPGTAPKLLIYDNNKRPSGIPDRFSGSKSGTSATLGITGLQTGDEADYYCGTWNSSLSAGYVFGTGTKVTV	percent of cells shifted [1]: 4%; % Cells Shifted [3]: 24%; GeoMean [3]: 1.79; Percent Inhibition (A375M adhesion to osteopontin peptide, 5 µg/ml) [4]: 3%
–	–	-2	6	0.013	0.013	0.039	4890	6840	7240	sc 264 RAD (antibody, V domains shown, Variable domains only) VH: QVQLQESGPGLVKPSQTLSLTCTVSGGSISSGGYYWSWIRQHPGKGLEWIGYIYYSGRTYNNPSLKSRVTISVDTSKNQFSLKLSSVTAADTAVYYCARVATGRADYHFYAMDVWGQGTTVTVSS VL: SYELTQPSSVSVSPGQTARITCSGDVLAKKSARWFHQKPGQAPVLVIYKDSERPSGIPERFSGSSSGTTVTLTISGAQVEDEAAYYCYSAADNNLVFGGGTKLTVL	Kd [16]: < 0.05 nM; Kd [17]: 0.0463 nM
